Experimental data as given in the nanobody polyreactivity screen of Harvey et al. (2022).

Assay: yeast display, Sf9 membrane polyspecificity reagent, FACS + sequencing; frameworks hold sequencing errors
Summary of the method: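 Sorting gates, low and high (top ~1%), were placed on anti-HA fluorescence to track expression and on streptavidin fluorescence to track reagent binding. A clone's polyreactivity label is taken from the gate it came out of. The reagent was 10% biotinylated, detergent-solubilized Sf9 membrane, applied for 1 hour at 4 °C to galactose-induced yeast display cells.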

Sequence	polyreactivity (PSR sort gate)
QVQLVESGGGLVQAGGSLRLSCAASGRTFDGYAMGWYRPAPGKERELVAAISWGGGSTYYADSVKGRFTISRDNAKNTVYLQMNSLKPEDTAVYYCNAYTYYYGNDYWGQGTQVNVSS	high polyreactivity
QVQLVESGGGLVQAGGSLRLSCAASGSIFPFYAMGWYRQAPGKERELVAAISWSVGNTYYADSVKGRFTISRDNAKNTVYLQMNRLKPEDTAVYYCAARQDPPLGYDYWGQGTQVTVSS	low polyreactivity
QVQIVESGGGLVQAGGSLRLSCAASGFIFYYYDMGWYRQAPWKERELVAVLTESGSSTYYADSVKGRFTITRDNAKNNVYLQMNSLKPEDTAVYYCAADGRASVGGLGDDYWGQGTQVTVSS	low polyreactivity
QVQLVESGGGLVQAGGSLRLSCAASGITFPRYAMGWYRQAPGKERELVARITSGGRTNYADSVKGRFTISRDNAKNTVYLQMYSLKPEDTAVYYCNAVGWVRSQVRLGYWGQGTQVTVSS	high polyreactivity
QVQLVESGGGLVQAGGSLRLSCAASGITLYWYAMGWYRQAPGKERELVAAISRRGGTTYYADSVKGRFTISRDNAKNTVYLQMNSLKPEDTAVYYCAKAPDTQTSWSRQEGNYWGQGTQVTVSS	low polyreactivity
QVQLVESGAGLVQAGGSLRISCAASGSTFDGNDIGWYRQAPGKERELVAAITIGGGSTYYADSVKGRFTISRDNAKNTVYLQMNSLKPEDTAVYYCAKDDHTGVHTYPGDYWGQGTQVTVSS	low polyreactivity
QVQLVESGGGLVQAGGSLRLSCAASGRIFPDNAMGWYRQAHGKERELVAVITYSGGSTYYADSVKGRFTISRDNAKNTVYLQMNSLKPEDTAVYYCAARDYYIWFAEVDYWGQGTQVTVSS	low polyreactivity
QVQLVESGGGLVQAGGSLRLSCAASGSIFLRNAMGWYRQAPGKERELVAAITKRGGSTYYADSVKGRFTISRDNAKNTVYLQMNSLKPEDTAVYYCNVDTYANTAFVRKPMYYWGQGTQVTVSS	low polyreactivity
QVQLVESGGGLVQAGGSRRLSCAASGRIFTYYAMGWYRQAPGKERELVAAISSGGSTYYADSVKGRFTISRDNAKNTVYLQMNSLKPEDTAVYYCAAAGGYYGVNWRGDSWGQGTQVTVSS	high polyreactivity
QVQLVESGGCLVQAGGSLRLSCAASGRTFNYKAMGWYRQAPGKERELVAAINYSGDSTYYADSVKGRFTISRDNAKNTVYLQMNSLQPEDTAVYYCNADDYWYYYRYGYWGQGTQVTVSS	low polyreactivity
QDQLVESGGGLVQAGGSLRLSCAASGFTFAGYAMGWYRQAPGKERELVAAITYSGGRTYYADSVKGRFTISRDNAKNTVYLQMNSLKPEDTAVYYCAARNYRYPGRYVYWGQGTQVTVSS	high polyreactivity
QVQLVESGGGLVQARGSLRLSCAASGRTFGLYAMGWYIQAPGKEWELVAAITSGGSTYYADSVKGRFTISRDNAKYTVYLQMNSLTPEDTAVYFCDAEHDYLAQFEYDYWGPGTQVTVSS	low polyreactivity
QVQLVESGGGLVQAGGSLRLSCAASGRTFSKYAMGWYRQAPGKERELVAAISKRGDSTYYADSVKGRFTISRDNAKNTVYLQMNSLKPEDTAVYYCARDDYRAYKSYYRYGYWGQGTQVTVSS	low polyreactivity
QVQLVESGGGLVQAGGSLRLSCAASGSIFPGYTMGWYRQAPGKESELVAAITSSGGSTYYADSVKGRITISRDNAKNTVYLQMNSLKPEDTSVYYCAADTTNYFVPFDYWGLGTQVTVSS	low polyreactivity
QVHLVESGGGLVKAGGSLRLSCAASGNTFLWYAMGWYRQAPGKERELVAAITYSGGSTYYADSVKGRFTISRDNAKNTVYLQMNSLKPEYTPVYYCAAVGSYLAGYQFDYWGQGTQVNVSS	low polyreactivity
QVQLVESGGGLVQAGGSLRLSCADSGSTFSYYAMGWYRQAPGKEGELVAAISARGGSTNYADSVKGRFTISRDNAKNTVYLQMNSLKPEDTAVYYCAAYDPLVDYFRYAYSDDYWGQGTQVTVSS	high polyreactivity
QVQLVESGGGLVQAGGSLRLSCAASGGTFYYYAMGWYRQAPGKERELVATITWSGDSTNYADSVKGRFTISRDNAKNTVYLQMNSLKPEDTAVYYCAKDLTQSYEYDYWGQGTQVTVSS	low polyreactivity
QVHLVESGGGLVQAGGSLRLSCAASGFTFRYYAMGSYRQAPGKERELVASIRRIGGSTYYADSVKGRFTISRDNAKNTVYLQMNSLKPDDTAVYYCAASTNFYYNPEYDSWGQGTQVTVSS	low polyreactivity
QVQLVESGGGLVQAGGSLRLSCAASGSIFGFYMGWYRQAPGKERELVAAISGSGGNTYYADSVKGRFTISRDNAKNTVYLQMNSLKPEDTAVYYCAVRYPGSRYLISKNGYWGQGTQVTVSS	high polyreactivity
QVQLVESGGGLVQAGGSLRLSCAASGSIFLYNAMGWYRQAPGKERELVAAISASGGSTYYADSVKGRFTISRDNAKNTVYLQMNSLKPEDTAVYYWAAQYSDYDGFTWPLPPRYDYWGQGTQVTVSS	high polyreactivity

Sequence	polyreactivity (PSR sort gate)
QVQLVESGGGLVQAGGSLRLSCAASGSTFAVNAMGWYRQAPGKERELVAAISGSGGRTYYADSVKGRFTISRDNAKNTVYLQMNSLKPEDTAVYYCATELRASYRSSGAYHYDYWGQGTQVTVSS	low polyreactivity
QVQLVESGGGLVQAGGSLRLSCASSGSTFHVNAMGWYRQAPGKERELVARISSTGRTSYADSVKGRFTISRDNAKNTVYLQMNSLKPEDTAVYYCAARYYRVYVSSDYYYWGQGTQVTVSS	high polyreactivity
QVHLVESGGGLVQAGGSLRLSCAASGSTIVDYHMAWYRQAPGKERELVASISSSGGSTYYADSVKGRFTISRDNAKNTVYLQMNSLKPEDTAVYYCAADTWGFWYWGPLFSKYGYWGQGTQVTVSS	low polyreactivity
QVQLVESGGGLVQAGGSLRLSCAASGRIGNTMGWYRQAPGKERELVATISSSGGSTYYADSVKGRFTISRDNAKNTVYLQMNSLKPEDTAVYYCAVEYYGYSTSGRYLSPYNYWGQGTQVTVSS	low polyreactivity
QVQLVESGGGLVQAGGSLRLSCAASGRIYYRNAMGWYRQAPGKERELVAAISWRGGTTYYADSVKGRFTISRDNAKNSVYLQMNSLKPEYTAVYYCAADRRKAQAKPVHYSWGPQRYGYGYWGQGTQVTVSS	high polyreactivity
QFQLLESGGGLVQAGGSLRLSCAASGSTFSLTTMGWYRPAPGKERELVAAINSGGSTYYADSVKGRFTISRDNAKNTVYLKMNSLKPEDTAVYYCAARTKYFGRFDYWGQGTQVTVSS	low polyreactivity
QVQLVESGGGLDQAGGSLRLTCAASGIIFFEYAMGWYRQAPGKERELVAAISWRGGRTYYADSVKGRFTISRDNAKNSVYLQMNSLKPEDTAVYYCAADFRSWPYYPWSKYDYWGQGTQVTVSS	high polyreactivity
QVQLVESGGGLVQAGGSLRLSCAASGRIFIANTMGCYRQAPGKERELVAAITQRGDSTYYADSVKGRFTISRDNAKNTVYLQMNSLKPEDTAVYYCAARYYLSSYVRYNYWGQGTQVTVSS	high polyreactivity
QVQLVESGGGLDQAGGSLRLSCAASGSIFVNYARGWYRQAPGKERELVAAITRSGGRTYYADSVKGRFTISRDNAKNTVYLQMNSLKPEVTAVYYCAARRGYAGNRDGYWGQGTQVNVSS	high polyreactivity
QVQLVESGGGLVQAGGSLRLSCAASGFIFVNYAMGWYRQAPGKERELVAAITRRGGRTYYADSVKGRFTISRDNAKNTVFLQINRLKPEDTAVYYCATENQSRTPEEDSWGQGTQVTVSS	high polyreactivity
QVQLVESGGGLVQAGGSLRLSCAASGSIIPLYAMGWYRQAPGKERELVAAISRRGGSTYYADSVKGRFTISRDNAKNTVYLQMNSLKPEDTAVYYCSVDSPSPSRGPRFYYWGQGTQVTVSS	high polyreactivity
QVQLVESGGGLVQAGGSLRLSCAASGSTFSYYAMGWYRQAPGKERDLVAAISTDGGSTYYADSVKGRFTISRDNAKNTVYLQMNSLKPEDTAVYYCAALVGYYQYVWDLTYTVVEYNYWGQGTQVNVSS	low polyreactivity
QVQLEESGGGLVQAGGSLRLSCAASGSTFSDNAKAWYRQATGKVRELVADITWSGGSTHYADSVKGRFTFSRDNAKNTVYLQMTSLKPEDTSVYYCARDNYKEGDYWGQGTKVTVSS	low polyreactivity
QVHLVESGGGLVQAGGSLRLSSAASGRIFYNYTMRWYRQAPGKERELVAAITRSGSSTYADSVKGRFTISRDNGKNTVYLQMNSLKQEDTAVYYCAGEYIRRYDYWGQGTQETVSS	low polyreactivity
QVQLVESGGGLVQAGGSLRLSCAASGITFVLNVMGWYRQAPGKERELVAAISWSVGGTYYADSVKGRFTISRDNAKNTVYLQMNSLKPEDTAVYYCAAGSYAYDNYGSEYWKWYGYWGQGTQVTVSS	low polyreactivity
QVQLVESGGGLVQAGGSLRLSCAASGLIFSVYAMGWYRQAPGKERELVARISINGGSTYYADSVKGRFTISRDNAKNTVYLQMNSLKPEDTAVYYCNAVRITHYVRYYYWGQGTQVTVSS	high polyreactivity
QVQLVESGGGLVQAGGSLRLSCAASGFTFGPNTMGWYRQAAGKERELVATITWRGDGSTYYADSVKGRFTISRDNAKNTVYLQMNSLKPEDTAVYYCAAVIRPFSRRDMYYWGQGTQVTVSS	low polyreactivity
QVQLVESGGGLVQAGGRLRLSCAASGLTFGWYTMGWYRQAPGKERELVADITWSGGSTYYADSVKGRFTISRDNAKNTVYLQMNSLKPEDTAVYYCNKVWFYLEYGFSILYDYWGQGTQVTVSS	low polyreactivity
QVQLVESGGGLVQAGGSLRLSSAASGSTFDDYVMGWYRQAPGKERELVAGINSRGTSTDYADSVKGRFTISRDNAKNTVYLQMNSLKPEDTAVYYCNAESPSGRLFDDAYENDYWGQGTQVTVSS	low polyreactivity
QVQLVESGGGLVQAGGSLRLSCAASGSTFSYYAMGWYRQAPGKERELVAAISSRGGSTYYADSVKGRFTISRDNAMNNVYLQMNSLKPEDTAVYFCNADHQFRSSVSGDHDFWGQGTQVTVSS	high polyreactivity
